Test results: the supplement of paper PMC12042874
± gives the uncertainty stated by the source.

Assay: amyloid nucleation score (Sup35N fusion, yeast selection) (log enrichment); library NNK3; higher = more nucleation; inactive = no reads after selection
How it was run: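 Libraries of peptides of 20 random codons fused to Sup35N were expressed in psi-negative yeast and induced 24 hours with 100 μM copper sulfate. Selection was 7 days at 30°C on medium lacking adenine and uracil, and plasmid inserts were Illumina-sequenced before and after selection. Nucleation score is the DiMSum log enrichment of output over input reads, centred on the mode score of non-aggregating sequences, and sequences with under 100 input reads were left out.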

Substance	amyloid nucleation score
HTVLILVCAFKNAG	inactive
HTYLFRSMS	inactive
HVAKVGTFNWTHNGYDNCFV	inactive
HVCHKTYLSLKLHKLDFFYS	0.391 ± 0.17
HVFYIVYSFISLRNHVAYLS	inactive
HVLNEWKSNTGLVVSSAWFC	1.43 ± 0.087
HVLSVQTLYLFCKGLKESGT	0.809 ± 0.16
HVNLIDTKNSLMQMLN	inactive
HVNMSNIVLVLFSNSFNMHE	1.75 ± 0.082
HVVGQDIRV	inactive
HVVIARTNRGDYNCFSSDGG	inactive
HVVKSRSGLIMVWRPLL	-0.65 ± 1.1
HWMVSCYFSVRLRARLSRRG	inactive
HWTLKMTVQHVFMLGASCRY	inactive
HYLQS	inactive
HYNSSSFRVGPCVSLGNHTQ	inactive
HYRFNNACLDRGHSEGYWRI	inactive
HYVIV	inactive
HYYVTVTHGS	inactive
IAALNFSCRTLSL	inactive
IADFNSL	inactive
IAFEVY	inactive
IAGFRNGSPANNAVGKPG	inactive
IAHWAWGMELIIYQIPNHFR	0.407 ± 0.25
IAIKNSSRRYMNYERLFTKL	inactive
IAMSRSACRYVFECYIYFFF	inactive
IARSREI	inactive

Substance	amyloid nucleation score
IATTDIYAAYFYSLMQAIYR	inactive
IAYNMCEIYVRVCYYFPIIC	inactive
ICAVFWDCMISRSCDTALYS	inactive
ICCTSS	inactive
ICLCLHCIYSRSITSAVLSA	inactive
ICNIYCCCQG	2.6 ± 0.069
ICRRPYFSHLRSHRGFQNTD	inactive
ICSGTSH	-0.268 ± 0.6
ICSII	inactive
ICSLCEHSFVRVNGMYWHRE	2.02 ± 0.092
ICTDGVHGCMVGS	inactive
ICVCEQSTVVYTKELSTFGA	0.012 ± 0.27
ICWMRDTTVVGFRWV	-0.07 ± 0.96
IDLRC	inactive
IDRSLLSGFSNLHICSICCT	1.2 ± 0.12
IDVRGSMYGVMMYHSTRDVT	inactive
IEAEHYCLLLVFLQVGLSSA	inactive
IEGEYLVASAWRFLQSKHAH	inactive
IEKASACNG	inactive
IEQGGI	inactive
IERGSDFLLHAMAYSFIGCL	-0.416 ± 1.1
IETAGSTHSSTWGDYSNRLC	inactive
IEVVYNLFWSRTFGAFVTKV	inactive
IFCAPRAEVSGSYYRGNVSV	inactive
IFFVRSDAFKFSILSVNASL	-0.37 ± 0.56
IFGFDYIAPFFCVTFGIRRV	inactive
IFLVVPGHDLWNCRRS	inactive

Substance	amyloid nucleation score
IFNLMFYFVVRNE	3.01 ± 0.071
IFSFTLSLSFGVFLNMFSVD	inactive
IFSLLPVDILVTLY	inactive
IFTLCITGGV	inactive
IFVLVYNISSNTGNYSIGFV	0.934 ± 0.15
IFVNWMVISVGLARFDVINA	-0.579 ± 0.69
IFVWYMNVSCGMVDRYGLPM	inactive
IFWICWLGFVNCVYTAEIPT	inactive
IGFFEFIKELITWKILS	inactive
IGFGSWFSKVSPNVEFVGAL	inactive
IGRAIVHWYWFSSL	inactive
IGVKSYWLRRSYLLFKYWMV	inactive
IHCGACYSACWVRLGAWMTC	inactive
IHFNWLIYITNTYVRRIFRC	inactive
IHLSCMIIKRHLSRYCDQSR	inactive
IHLTCLWVYQDLLV	inactive
IHRNEYMMRKKDRILQNLAV	inactive
IHVMSWKQSYSI	0.949 ± 0.15
IHYPKCVAGLCSRSLCTAVV	inactive
IIEPYTFCFRICVWGGEWIV	inactive
IIFWNICPAYCYL	2.29 ± 0.059
IIGWASWCVGKGHLTFCQLV	inactive
IIIFWLFLSGEIDECNNCAV	inactive
IIKWSCYNLSLYHTKCKDAE	inactive
IIMLTFQVNVTFASVWRTRS	inactive
IIRAFDTYVCCKFGNCSVHM	2.59 ± 0.052
